Among the data in paper PMC9425028 are ratio to parent values, retold here.

First the molecules themselves.
B1: wild-type recombinant mouse MASP-3 fused with PA-tag (WT rmMASP-3-PA) [mouse] / mouse ficolin-A [mouse (endogenous in serum of C57BL/6J mice)] (parent)
chain 1: HTVELNEMFGQIQSPGYPDSYPSDSEVTWNITVPEGFRIKLYFMHFNLESSYLCEYDYVKVETEDQVLATFCGRETTDTEQTPGQEVVLSPGTFMSVTFRSDFSNEERFTGFDAHYMAVDVDECKEREDEELSCDHYCHNYIGGYYCSCRFGYILHTDNRTCRVECSGNLFTQRTGTITSPDYPNPYPKSSECSYTIDLEEGFMVSLQFEDIFDIEDHPEVPCPYDYIKIKAGSKVWGPFCGEKSPEPISTQTHSVQILFRSDNSGENRGWRLSYRAAGNECPKLQPPVYGKIEPSQAVYSFKDQVLVSCDTGYKVLKDNEVMDTFQIECLKDGAWSNKIPTCKIVDCGAPAGLKHGLVTFSTRNNLTTYKSEIRYSCQQPYYKMLHNTTGVYTCSAHGTWTNEVLKRSLPTCLPVCGQPSRALPNLVKRIIGGRNAELGLFPWQALIVVEDTSRVPNDKWFGSGALLSESWILTAAHVLRSQRRDNTVIPVSKEHVTVYLGLHDVRDKSGAVNSSAARVILHPDFNIQNYNHDIALVQLQKPVPLGAHVMPICLPRPEPEGPAPHMLGLVAGWGISNPNVTVDEIILSGTRTLSDVLQYVKLPVVSHAECKASYESRSGNYSVTENMFCAGYYEGGKDTCLGDSGGAFVIFDEMSQHWVAQGLVSWGGPEECGSKQVYGVYTKVSNYVDWLWEEMNSPRAVRDLQVER
chain 2: SQALGQERGACPDVKVVGLGAQDKVVVIQSCPGFPGPPGPKGEPGSPAGRGERGFQGSPGKMGPAGSKGEPGTMGPPGVKGEKGDTGAAPSLGEKELGDTLCQRGPRSCKDLLTRGIFLTGWYTIHLPDCRPLTVLCDMDVDGGGWTVFQRRVDGSIDFFRDWDSYKRGFGNLGTEFWLGNDYLHLLTANGNQELRVDLQDFQGKGSYAKYSSFQVSEEQEKYKLTLGQFLEGTAGDSLTKHNNMSFTTHDQDNDANSMNCAALFHGAWWYHNCHQSNLNGRYLSGSHESYADGINWGTGQGHHYSYKVAEMKIRAS
B2: wild-type recombinant mouse MASP-3 fused with PA-tag (WT rmMASP-3-PA) [mouse] / mouse collectin kidney 1 (CL-K1) [mouse (endogenous in serum of C57BL/6J mice)] (parent)
chain 1: B1 chain 1
chain 2: QQTTEDACSVQILVPGLKGDAGEKGDKGAPGRPGRVGPTGEKGDMGDKGQKGTVGRHGKIGPIGAKGEKGDSGDIGPPGPSGEPGIPCECSQLRKAIGEMDNQVTQLTTELKFIKNAVAGLRETESKIYLLVKEEKRYADAQLSCQARGGTLSMPKDEAANGLMASYLAQAGLARVFIGINDLEKEGAFVYSDRSPMQTFNKWRSGEPNNAYDEEDCVEMVASGGWNDVACHITMYFMCEFDKENL

In the first test the parent is B1. Nature of the test: immunoprecipitation with anti-PA tag antibody beads from mouse serum, Western blot band intensity. To be noted: with mouse ficolin-A [mouse (endogenous in serum of C57BL/6J mice)]; TBS containing 7 mM MgCl2 and 5 mM CaCl2 (TBS/Mg/Ca); parent: 1; read off a plot. A general note: In western blotting, separated proteins are transferred to a membrane and probed.
chain 1 Y225A: the ratio to parent stood at 0.06.

As to chain 1 E49A, the ratio to parent was found to be 0.09.

Turning to chain 1 D102A, the ratio to parent amounted to 0.04.

As for chain 1 H218A, the ratio to parent was found to be 0.04.

Another test covers variants of B2. The description is as above. To be noted: with mouse collectin kidney 1 (CL-K1) [mouse (endogenous in serum of C57BL/6J mice)]; TBS containing 7 mM MgCl2 and 5 mM CaCl2 (TBS/Mg/Ca); parent: 1; read off a plot.
In the case of chain 1 Y225A, the ratio to parent is 0.07.

With chain 1 H218A, the ratio to parent was determined as 0.04.

As for chain 1 D102A, the ratio to parent turned out to be 0.03.

As for chain 1 E49A, the ratio to parent was determined as 0.02.
